Patent US20070003546A1

target: extracellular region of human V158 FcγRIIIa fused with glutathione S-Transferase (GST) (human) (UniProt P08637); experiment: AlphaScreen competition
Sequence (P08637 17-208 F176V): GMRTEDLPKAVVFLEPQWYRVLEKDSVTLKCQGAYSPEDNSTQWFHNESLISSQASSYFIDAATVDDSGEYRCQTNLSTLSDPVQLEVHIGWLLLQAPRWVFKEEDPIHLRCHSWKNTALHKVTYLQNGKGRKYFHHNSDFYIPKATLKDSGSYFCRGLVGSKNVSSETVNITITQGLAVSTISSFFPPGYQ

Row | Substance | FcγRIIIa Fold [fold]
1 | alemtuzumab A298H (antibody) | 0.27
2 | trastuzumab E233D (antibody) | 0.85
3 | trastuzumab E333H (antibody) | 0.75
4 | trastuzumab F275W (antibody) | 1.11
5 | trastuzumab K274L (antibody) | 1.09
6 | trastuzumab K274R (antibody) | 1.41
7 | trastuzumab K274Y (antibody) | 1.06
8 | trastuzumab K326I (antibody) | 1.43
9 | trastuzumab K326T (antibody) | 1.88
10 | trastuzumab N276E (antibody) | 0.87
11 | trastuzumab N276R (antibody) | 0.66
12 | trastuzumab N276S (antibody) | 0.41
13 | trastuzumab P230A (antibody) | 1.09
14 | trastuzumab P230A/E233D (antibody) | 0.92
15 | trastuzumab P230A/E233D/I332E (antibody) | 1.87
16 | trastuzumab S239D/A330Y/I332E/K326E (antibody) | 64.1
17 | trastuzumab S239D/A330Y/I332E/L235D (antibody) | 7.04
18 | trastuzumab S239D/A330Y/I332E/V240I (antibody) | 28
19 | trastuzumab S239D/I332E/A330I (antibody) | 59.1
20 | trastuzumab S324Y (antibody) | 0.98
21 | trastuzumab T335R (antibody) | 2.58
22 | trastuzumab T335Y (antibody) | 1.56
23 | trastuzumab V240I/V266I (antibody) | 1.72
24 | trastuzumab V273I (antibody) | 0.79
25 | trastuzumab V323I (antibody) | 0.83
26 | trastuzumab Y278E (antibody) | 0.9
27 | trastuzumab Y278T (antibody) | 1.87

The remaining lines, values ahead:

Row | FcγRIIIa Fold [fold] | Substance
28 | 8.7 | trastuzumab E272Y (antibody)
29 | 0.67 | trastuzumab E283R (antibody)
30 | 1.06 | trastuzumab E318R (antibody)
31 | 0.78 | trastuzumab E333T (antibody)
32 | 6.11 | trastuzumab K274E (antibody)
33 | 1.41 | trastuzumab K274T (antibody)
34 | 0.07 | trastuzumab L234I/L235D (antibody)
35 | 0.56 | trastuzumab N276Y (antibody)
36 | 22.4 | trastuzumab S239D/A330Y/I332E/L234I (antibody)
37 | 17.7 | trastuzumab S239D/A330Y/I332E/V264T (antibody)
38 | 0.71 | trastuzumab S324R (antibody)
39 | 1.17 | trastuzumab S324V (antibody)
40 | 2.79 | trastuzumab T335D (antibody)
41 | 1.01 | trastuzumab V302I (antibody)
42 | 0.41 | trastuzumab Y278W (antibody)

target: FcγRIIIa on human PBMCs expressing heterozygous V158/F158 FcγRIIIa (human) (UniProt P08637); experiment: cell-based or functional assay

Row | ADCC EC50 (DELFIA EuTDA, DoHH-2 target cells) [ng/mL] | Substance
43 | 3 | alemtuzumab S239D/I332E (antibody)
44 | 4 | alemtuzumab V264I/I332E (antibody)

target: His-tagged V158 FcγRIIIa (human) (UniProt P08637); experiment: SPR, receptor immobilized
Sequence (P08637 17-208 F176V limits assumed): as the sequence (P08637 17-208 F176V) above

Row | Kd [nM] | Substance
45 | 68 | WT alemtuzumab (antibody)
46 | 31 | alemtuzumab I332E (antibody)
47 | 52 | alemtuzumab S298A (antibody)
48 | 39 | alemtuzumab S298A/E333A/K334A (antibody)
49 | 64 | alemtuzumab V264I (antibody)
50 | 17 | alemtuzumab V264I/I332E (antibody)
